Tests used:
[1] = system: resting PBLs; assay: T cell receptor induced tyrosine phosphorylation after pretreatment; assay type: cell-based, human
Protocol: Briefly, resting PBLs were isolated and treated with ICR-1.1 or isotype matched control antibody as described above in Section I. After the cells were removed from antibody, they were washed one time in PBS, resuspended in PBS to a concentration of 1×10^6 cells/ml, and either treated or not treated with antisera to the T cell receptor (G19-4) for 2 minutes at 37° C. The cells were then spun down and lysed in boiling 2×SDS-sample buffer, boiled a further 5 minutes and resolved on 10% SDS-PAGE. Proteins were transferred to nitrocellulose and blotted with the 4G10 anti-phosphotyrosine antibody as described. […] This is consistent with the result that CD69 upregulation in these cells is also normal (Section L above), since CD69 expression requires PLC-gamma stimulated PKC activity and PLC-gamma activation requires tyrosine phosphorylation.

[2] = system: resting lymphocytes; assay: Restoration of anti-CD3 proliferation by IL-2; assay type: cell-based; conditions: human rIL-2 30 U/ml
Protocol: Human PBL were fractionated and incubated on immobiized monoclonal antibodies as described in Section I above. The cells were collected, washed and replated on anti-CD3 either in the presence or absence of human rIL-2 at 30 U/ml.

[3] = system: human PBL; assay: SEA-induced aggregation of PBL; assay type: cell-based; conditions: versus plate-bound B-H9
[4] = system: PBL; assay: Pre-incubation on plate-bound antibody then SEA proliferation; assay type: cell-based, human; conditions: cells moved to clean wells; SEA 10 pg/ml, 3 days
Protocol: The minimum time required for plate-bound anti-ICAM-R to inhibit SEA-induced proliferation was also determined. PBL were pre-incubated on plate-bound ICR-4.2, ICR-1.1 or isotype-matched anti-HLA-I control antibodies B-H9 (IgG1) and I0T2 (IgG2) with or without SEA (10 ρg/ml) for 3, 5 and 7 hours. PBL were then transferred to clean wells and cultured in the presence of SEA (10 pg/ml) for 3 days.

[5] = system: cell lines which express ICAM-R; assay: Homotypic aggregation assay, cell line panel; assay type: cell-based, human; conditions: presence and absence of PMA
Protocol: In order to determine whether ICAM-R is involved in homotypic cell adhesion, aggregation assays were performed with a panel of cell lines which express ICAM-R including T lymphoblastoid cell lines (SupT1, CEM, Molt 4, Hut 78, Jurkat, SKW3), B lymphoblastoid cells lines (Jijoye, Raji), monocytic cell lines (U937, HL60), a myelogenous cell line (KG-1) and the erythroleukemia cell line K562. To determine the function of the ICAM-R molecule, the cells were incubated with various antibodies before aggregation was assayed. Anti-ICAM-R supernatants produced by hybridomas ICR-2.1, ICR-1.1, ICR-4.2, and ICR-3.1 were used as well as antibody preparations known to block aggregation through a β2 integrin pathway: TS1/18 (ATCC HB203) specific for the CD18 molecule, the β-subunit of LFA-1; TS1/22 (ATCC HB202) specific for the CD11a molecule, the α-chain of LFA-1; and LM2/1 (ATCC HB204) specific for the CD11b molecule, the α-subunit of MAC-1. Purified anti-ICAM-1 antibody and hybridoma supernatant directed against the a-chain of the VLA-4 molecule (hybridoma clone 163H, Michael Longenecker, Alberta, Canada) were used as controls.
Aggregation assays were done in duplicate, with and without addition of PMA (50 ng/ml). 3×10^5 cells in RPMI 1640 medium with 10% fetal calf serum were added in a flat-bottomed 96-well microtest plate. […]

[6] = system: PBL; assay: Detergent resistance (cytoskeleton association) assay, PBL; assay type: cell-based, human
Protocol: Experiments were conducted using freshly prepared human PBL or the human T lymphoblastoid cell line CEM-CCRF (ATCC CCL119). Briefly, freshly drawn human blood from healthy volunteer donors was diluted 1:1 with PBS and layered onto Sigma HistoPaque density separation medium. The gradients were centrifuged for 30 minutes at 1500 rpm (600×g) and the mononuclear cell fraction at the interphase was collected and washed three times with PBS. The cell pellet was resuspended in complete RPMI-1640 medium (Gibco, supplemented with L-glutamine, penicillin/streptomycin, sodium pyruvate, 2-mercaptoethanol, and 10% FBS) and plated onto tissue culture-treated petri dishes for adherent cell depletion. Plates were incubated 1-2 hours at 37° C., 5% CO2 after which nonadherent PBL were harvested and washed twice with ice-cold PBS. Conjugation of monoclonal antibodies to fluorescein using fluorescein isothiocyanate (FITC) was performed according to published procedures [see, e.g., Goding, J. Immunol. Meth., 13: 215 (1976)] and, in brief, involves incubation of purified antibody with an excess of FITC (Sigma) in 0.1M bicarbonate buffer pH 8.1 for 90 minutes at 37° C. followed by exhaustive dialysis against PBS to remove unreacted FITC. […]

B1: ICR-1.1: anti-ICAM-R monoclonal antibody, IgG2a, domain 1, ATCC HB 11053 (antibody, V domains shown)
VH: QVQLQQSGAELAKPGASVKMSCKASGYTFTVYWMHWVKQRPGQGLEWIGYINPNTDYTEYNQRFQDKATLTADKSSSTAYMQLSSLTSEDSAVYYCARWGGNSYGLDYWGQGTSVTVSS
VL: QIVLTQSPALMSASPGEKVTMTCSASSSVSYIYWYQQKPRSSPKPWIYLTSNLASGVPARFSGSGSGASYSLTISIMEAEDAATYYCQQWKSIPLTFGAGTKLELK
B1 was tested, and the “tyrosine phosphorylation in response to G19-4 after pretreatment” value [1] was “there was an induction of tyrosine phosphorylation in response to G19-4 treatment”, the “proliferative response to anti-CD3 after prepulse, with added IL-2” value [2] was “completely restored proliferative responses” and the “SEA-induced cell aggregation, plate-bound antibody” value [3] was “almost complete”. For the same molecule, the “SEA proliferation after 3 hours pre-incubation on immobilized antibody” value [4] was “significantly reduced proliferation”, the “stimulation of homotypic cell-cell aggregation” value [5] was “stimulated homotypic cell-cell aggregation” and the “greater increase in detergent resistance, crosslinked antibody” value [6] was “approximately 2 fold”.

Source: US20040248211A1, “ICAM-related protein” (priority 1992, published 2004)
